B1: H11/IFN-λR1 binary complex (complex)
chain 1: GSARGCHIAQFKSLSPRELQAFKRAKDALEESLLLKDCKCRSRLFPRTWDLRQLQVRERPVALEAELALTLKVLDATADTDPALGDVLDQPLHTLHHILSQLRACIQPQPTAGPRTRGRLHRWLHRLQEAPKKESPGCLEASVTFNLFRLLARDLNCVASGDLCEAAAHHHHHHHH
chain 2: RPRLAPPQNVTLLSQNFSVYLTWLPGLGNPQDVTYFVAYQSSPTRRRWREVEECAGTKELLCSMMCLKKQDLYNKFKGRVRTVSPSSKSPWVESEYLDYLFEVEPAPPVLVLTQTEEILSANATYQLPPCMPPLDLKYEVAFWKEGAGNKTLFPVTPHGQPVQITLQPAASEHHCLSARTIYTFSVPKYSKFSKPTCFLLEVPEAN
B2: IFN-λ3 H11, recombinant (designed binder)
chain: B1 chain 1
B3: Wild-type IFN-λ3, recombinant (ligand)
chain: VPVARLRGALPDARGCHIAQFKSLSPQELQAFKRAKDALEESLLLKDCKCRSRLFPRTWDLRQLQVRERPVALEAELALTLKVLEATADTDPALGDVLDQPLHTLHHILSQLRACIQPQPTAGPRTRGRLHHWLHRLQEAPKKESPGCLEASVTFNLFRLLTRDLNCVASGDLCV
B4: IL-10Rβ, monomeric soluble receptor (receptor)
chain: MVPPPENVRMNSVNFKNILQWESPAFAKGNLTFTAQYLSYRIFQDKCMNTTLTECDFSSLSKYGDHTLRVRAEFADEHSDWVNITFCPVDDTIIGPPGMQVEVLADSLHMRFLAPKIENEYETWTMKNVYNSWTYNVQYWKNGTDEKFQITPQYDFEVLRNLEPWTTYCVQVRGFLPDRNKAGEWSEPVCEQTTHDETVPS
modifications: Alexa 647 label (in the yeast staining)

Experiment in all cases: SPR
The target in experiment [1] is B4.
Experiment [2] concerns the target T1, IFN-λR1, soluble recombinant receptor (UniProt Q8IU57 21-226).
T1 sequence: B1 chain 2

Experiment [3] deals with B1.

By Kd is commonly meant the equilibrium constant for the complex coming apart. Molecule B1 yielded a Kd in experiment [1] of 560 nM.

With B2, the Kd in experiment [2] is roughly 150 nM.

On to B3, for which the Kd in experiment [2] is roughly 850 nM.

As for B4, the “fold increase in affinity against the wild-type IFN-λ3/IFN-λR1 binary complex” value in experiment [3] was 30 fold.

Source of the values: PMC5510750 (Immunity, 2017).
